This passage reports self-cleavage results from the RNAGym collection of RNA variant scans (doi:10.7554/elife.80360).

Sequences and labels used below:
B1: Hammerhead Ribozyme (parent)
chain: ACCGGAUGUGCUUUCCGGUCUGAUGAGUCCGUGAGGACGAAACAG

In this data set the parent is B1. The data set can be described thus: self-cleavage, relative activity (ratio to wild type); higher = more cleavage; co-transcriptional.
Regarding G31A, the self-cleavage is 1.03.
The value for G31U was 0.966; that for U24C U28A was 0.614; that for G4U A37C was 0.329.
The value for C16G G17U was 0.681.
For the variant G39C A40G, the self-cleavage was 0.331.
The same measure for G8C G35A: 0.769; for C2G G10U: 0.379; for G33A G36A: 0.894.
The value for A40U A42G was 0.261; that for G22A G35U was 0.328; that for U7C A37U was 0.621.
The same measure for U12G G33C: 0.972.
In the case of G4A U14A, the self-cleavage came out at 0.49.
Turning to U14A C38G, the self-cleavage was found to be 0.574.
The same measure for C20U A44C: 0.376; for A1U A42C: 0.395; for G10C A23C: 0.538.
Consider G22U A37C, for which the self-cleavage came to 0.3.
The same measure for G31C A42U: 0.373; for U21G A42U: 0.36; for A1U G33C: 0.705.
The value for C16A U24A was 1.34.
The value for A34C G45A was 0.524; that for G22C C43A was 0.23.
In the case of G25C G39A, the self-cleavage stood at 0.33.
The value for A6U C16U was 0.655.
The value for A23C A37U was 0.42.
The value for U7C C30U was 0.842.
In the case of C11A C15G, the self-cleavage worked out at 1.15.
The same measure for C30U G36U: 0.498; for C3A A26G: 0.253.
The same measure for G5U A23C: 0.339; for G17U G45C: 0.513; for G27A A34C: 0.431.
The same measure for G39C A41G: 0.328.
Consider U28A A42G, for which the self-cleavage came to 0.25.
The same measure for G36U G39A: 0.352; for A6G C16A: 0.825.
The value for C15G G18C was 0.353; that for G17A G27A was 0.51; that for G5C U32A was 0.549.
Regarding C2U C11G, the self-cleavage was determined as 1.5.
The same measure for C11A U24G: 1.34; for A34G A42U: 0.329.
The value for U28A C29A was 0.682; that for C29U A40G was 0.389.
The same measure for C2G G45U: 0.335; for G5U U7C: 0.716; for U14G G36A: 0.729.
Turning to U7C C20G, the self-cleavage is 0.306.
The value for U13A G25U was 0.277; that for G5C A34G was 0.74.
In the case of G17A U21C, the self-cleavage is 0.294.
The same measure for G27U G45C: 0.365.
The same measure for A23U G31A: 0.631; for C3A A23U: 0.28; for G17U C29U: 0.748.
The same measure for C2G G4U: 0.219; for G18C A23C: 0.298; for G8A U13A: 1.04.
Take C16G G27A: the self-cleavage was found to be 0.42.
The value for A23G C38U was 0.394; that for C2U G39C was 0.336; that for U9A U21A was 0.528.
The same measure for U7C G31U: 1.1; for U19G C29A: 0.257; for A1G A37G: 1.23.
The value for A26G C43U was 0.285; that for U24C G27C was 0.559.
Consider U12G C15G, for which the self-cleavage is 0.819.
The same measure for G36C: 0.52; for C15U G18U: 0.643.
Take U12C G45U: the self-cleavage is 0.564.
The same measure for U12C G45C: 0.73; for A42G C43G: 0.308.
The same measure for C20A C29G: 0.311; for C3G G8A: 0.406.
The same measure for U24A A37U: 0.771; for C43G G45A: 0.327; for C3A C20A: 0.348.
Take C2U C43G: the self-cleavage is 0.372.
The same measure for U28G U32A: 0.83; for C30A A40U: 0.347; for C3G C30U: 0.636.
The value for U21A U28C was 0.529; that for C16A A40C was 0.402.
Take A1G C38G: the self-cleavage was 0.865.
The same measure for C3A G25A: 0.298; for A6U C15G: 0.527.
The value for A6U C15A was 0.741; that for G25C A37U was 0.286.
Take G8U U28C: the self-cleavage came out at 1.23.
The value for G10C A37G was 0.958; that for C20U U21C was 0.531; that for C20U U21G was 0.362.
The same measure for G36U C43U: 0.304.
For U19G C38U, the self-cleavage amounted to 0.364.
The value for G8A G22C was 0.273; that for G4C C15G was 0.929; that for C3A U14C was 0.436.
The same measure for A1U U7A: 0.588; for U7A C16G: 0.851; for U13G G18C: 0.696.
The value for U7A G10A was 1.33; that for A41U C43G was 0.332; that for C20G A41C was 0.329.
Regarding U9A A23G, the self-cleavage is 0.324.
For the variant C30G A44G, the self-cleavage is 0.769.
The value for C15G U19G was 0.382; that for U19C A42G was 0.279.
The value for U9A G18C was 0.39; that for G18U G35A was 0.555; that for U7G U12C was 1.42.
With U24C A26G, the self-cleavage turned out to be 0.401.
In the case of U9G G31A, the self-cleavage stood at 1.14.
The same measure for C16A: 1.21.
With G10A U13A, the self-cleavage worked out at 1.72.
Consider U9G U32G, for which the self-cleavage was found to be 1.07.
A6G C11A: the self-cleavage was 0.965.
The same measure for A34U G36U: 0.565; for G22U C43U: 0.305.
The same measure for G27C G36C: 0.257; for A23U A37U: 0.272.
The same measure for G31A A42U: 0.335; for G35U A44U: 0.338; for U7C A34U: 0.995.
C3G G27A: the self-cleavage came out at 0.317.
Turning to C20A A37U, the self-cleavage was 0.353.
Turning to G10A A37U, the self-cleavage amounted to 0.921.
The same measure for G31A A37C: 1.17; for G8A C29U: 0.966.
Regarding U14A A26C, the self-cleavage is 0.47.
With G4U G27C, the self-cleavage was 0.35.
The value for G10U C29G was 0.621; that for C29A G35C was 0.526; that for G17A A23U was 0.315.
The same measure for U9C G36A: 0.511; for U14G: 0.77.
The same measure for U14C A37C: 0.436.
In the case of G17C A37U, the self-cleavage stood at 0.359.
Take U28A A44U: the self-cleavage worked out at 0.402.
On to U14C A26U, for which the self-cleavage was 0.444.
The same measure for G27C A37C: 0.491.
The value for U24C G31U was 0.982; that for C11G G25A was 0.288; that for A42G was 0.336.
Turning to A1G G17C, the self-cleavage was found to be 0.585.
The same measure for C38A A42C: 0.326.
The same measure for C38A A42U: 0.283; for U13C G27U: 0.673; for C20U A23C: 0.353.
The same measure for U7C A40C: 0.418; for A34C G39C: 0.32; for G10A C11G: 1.35.
As to C38U C43U, the self-cleavage was 0.34.
The value for C11G C16A was 0.865; that for C3U C30U was 0.929.
Turning to U9A C29G, the self-cleavage amounted to 0.602.
The value for G5C A42C was 0.356.
On to C20U G31C, for which the self-cleavage was 0.489.
In the case of U21C A34U, the self-cleavage was determined as 0.749.
The same measure for A1G G8U: 1.65.
Turning to U13A U19A, the self-cleavage is 0.36.
In the case of A26G C30A, the self-cleavage was determined as 0.307.
The same measure for C11G U32C: 1.12; for C11G U32G: 1.19.
